Consider 91 sequences from the supplement of paper PMC9112550, “Optimization of the antimicrobial peptide Bac7 by deep mutational scanning” (BMC Biology, 2022).

This series relates to Escherichia coli TOP10. Nature of the series: shrunken log2 fold change of peptide-encoding DNA abundance (4.5 h post-induction vs induction); higher = less antimicrobial activity (less host growth inhibition). The settings on record: time post-induction: 4.5 h; library: site-saturation at positions 5, 18, 19, 20.
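Note: peptides expressed intracellularly from a pBAD plasmid library in pooled LB shake-flask culture, induced with 0.3% L-arabinose, DNA abundance read by NGS, three biological replicates, DESeq2 with apeglm shrinkage.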

As to RRIRYRPPRLPRPRPRPSDEPRP, the “shrunken log2 fold change” value is -0.0199.
Take RRIRPRPPRLPRPRPRPQTFPRP: the “shrunken log2 fold change” value is -0.495.
Next, RRIRDRPPRLPRPRPRPDARPRP: 1.31; RRIRKRPPRLPRPRPRPESFPRP: 0.0651; RRIRDRPPRLPRPRPRPAIGPRP: 0.325.
The value for RRIRDRPPRLPRPRPRPTSGPRP was 0.151; that for RRIRTRPPRLPRPRPRPMLLPRP was -0.0757; that for RRIRSRPPRLPRPRPRPIHKPRP was -0.165.
Turning to RRIRTRPPRLPRPRPRPMCMPRP, the “shrunken log2 fold change” value was -0.0542.
Take RRIRERPPRLPRPRPRPATSPRP: the “shrunken log2 fold change” value worked out at 0.0131.
The value for RRIRSRPPRLPRPRPRPSFCPRP was -0.251; that for RRIRIRPPRLPRPRPRPILPPRP was 0.0798; that for RRIRERPPRLPRPRPRPLDFPRP was -0.353.
Next, RRIRTRPPRLPRPRPRPGCSPRP: 0.0133.
The value for RRIRDRPPRLPRPRPRPWREPRP was 0.00581.
Regarding RRIRRRPPRLPRPRPRPYIQPRP, the “shrunken log2 fold change” value is -0.603.
In the case of RRIRMRPPRLPRPRPRPEGYPRP, the “shrunken log2 fold change” value stood at 2.64.
For RRIRFRPPRLPRPRPRPYQPPRP, the “shrunken log2 fold change” value was -0.269.
For the sequence RRIRARPPRLPRPRPRPSNRPRP, the “shrunken log2 fold change” value was -0.457.
The value for RRIRSRPPRLPRPRPRPMIWPRP was 0.027.
Next, RRIRNRPPRLPRPRPRPNGKPRP: -0.16; RRIRVRPPRLPRPRPRPHFIPRP: -0.304; RRIRMRPPRLPRPRPRPFMEPRP: -0.096.
With RRIRSRPPRLPRPRPRPGKIPRP, the “shrunken log2 fold change” value was -0.596.
Next, RRIRPRPPRLPRPRPRPVWAPRP: 0.278.
Next, RRIRSRPPRLPRPRPRPHLGPRP: -0.385; RRIRPRPPRLPRPRPRPCMAPRP: -0.151; RRIRSRPPRLPRPRPRPSTDPRP: -0.168.
Regarding RRIRIRPPRLPRPRPRPQYTPRP, the “shrunken log2 fold change” value is -1.18.
Next, RRIRYRPPRLPRPRPRPWFNPRP: -0.0994; RRIRDRPPRLPRPRPRPWSSPRP: 0.0046.
The value for RRIRGRPPRLPRPRPRPHCSPRP was 0.144; that for RRIRERPPRLPRPRPRPGCWPRP was 0.166.
Next, RRIRIRPPRLPRPRPRPPQAPRP: 0.639.
In the case of RRIRNRPPRLPRPRPRPAIGPRP, the “shrunken log2 fold change” value turned out to be 0.0499.
Next, RRIRDRPPRLPRPRPRPQSPPRP: 0.0974; RRIRERPPRLPRPRPRPMMCPRP: -0.0137; RRIRYRPPRLPRPRPRPRVLPRP: -0.322.
RRIRVRPPRLPRPRPRPECVPRP: the “shrunken log2 fold change” value is 0.399.
Next, RRIRCRPPRLPRPRPRPQEYPRP: -0.399; RRIRHRPPRLPRPRPRPRESPRP: -0.0496.
The value for RRIRARPPRLPRPRPRPKRRPRP was 0.282; that for RRIRNRPPRLPRPRPRPTFVPRP was -0.185; that for RRIRSRPPRLPRPRPRPQVFPRP was 0.0316.
As for RRIRRRPPRLPRPRPRPGKDPRP, the “shrunken log2 fold change” value is -0.0528.
Consider RRIRSRPPRLPRPRPRPQDQPRP, for which the “shrunken log2 fold change” value was -0.0695.
Next, RRIRVRPPRLPRPRPRPTTAPRP: 0.181.
The value for RRIRFRPPRLPRPRPRPASPPRP was 0.164; that for RRIRIRPPRLPRPRPRPKDIPRP was -1.25; that for RRIRNRPPRLPRPRPRPILCPRP was -0.174.
The value for RRIRCRPPRLPRPRPRPQWHPRP was 0.0206.
For RRIRHRPPRLPRPRPRPDLDPRP, the “shrunken log2 fold change” value was -0.0331.
In the case of RRIRARPPRLPRPRPRPEVLPRP, the “shrunken log2 fold change” value is 0.709.
On to RRIRIRPPRLPRPRPRPIWRPRP, for which the “shrunken log2 fold change” value stood at 0.529.
With RRIRDRPPRLPRPRPRPKAHPRP, the “shrunken log2 fold change” value is 0.0408.
As for RRIRPRPPRLPRPRPRPWMVPRP, the “shrunken log2 fold change” value is 0.0262.
Next, RRIRARPPRLPRPRPRPITHPRP: -0.045; RRIRVRPPRLPRPRPRPHRLPRP: -0.0912; RRIRVRPPRLPRPRPRPDMDPRP: -0.154.
In the case of RRIRSRPPRLPRPRPRPHYQPRP, the “shrunken log2 fold change” value is -0.357.
The value for RRIRNRPPRLPRPRPRPEWNPRP was 0.0541; that for RRIRSRPPRLPRPRPRPLQEPRP was 0.144.
As to RRIRHRPPRLPRPRPRPETSPRP, the “shrunken log2 fold change” value was 0.0165.
The value for RRIRRRPPRLPRPRPRPQADPRP was 0.312; that for RRIRLRPPRLPRPRPRPLTQPRP was 0.343; that for RRIRSRPPRLPRPRPRPEAAPRP was 0.873.
Next, RRIRRRPPRLPRPRPRPCREPRP: 0.0134.
The value for RRIRGRPPRLPRPRPRPESWPRP was 1.7; that for RRIRTRPPRLPRPRPRPVPFPRP was 0.0392; that for RRIRLRPPRLPRPRPRPKRFPRP was 0.104.
RRIRQRPPRLPRPRPRPCVEPRP: the “shrunken log2 fold change” value was -0.206.
Take RRIRNRPPRLPRPRPRPKFTPRP: the “shrunken log2 fold change” value was -0.0624.
RRIRVRPPRLPRPRPRPFIWPRP: the “shrunken log2 fold change” value was -0.0481.
Take RRIRLRPPRLPRPRPRPFGMPRP: the “shrunken log2 fold change” value is -0.205.
In the case of RRIRARPPRLPRPRPRPNHEPRP, the “shrunken log2 fold change” value stood at 0.021.
The value for RRIRQRPPRLPRPRPRPDNDPRP was -0.0011; that for RRIRVRPPRLPRPRPRPEIVPRP was -0.0567.
Regarding RRIRLRPPRLPRPRPRPFWFPRP, the “shrunken log2 fold change” value was found to be 0.0715.
As to RRIRQRPPRLPRPRPRPLNSPRP, the “shrunken log2 fold change” value was -0.0233.
The value for RRIRYRPPRLPRPRPRPTTEPRP was 0.00298; that for RRIRDRPPRLPRPRPRPCLDPRP was -0.0178.
In the case of RRIRKRPPRLPRPRPRPIHSPRP, the “shrunken log2 fold change” value is -0.00784.
Consider RRIRGRPPRLPRPRPRPCDGPRP, for which the “shrunken log2 fold change” value was 0.123.
Next, RRIRVRPPRLPRPRPRPDIFPRP: -0.171.
Next, RRIRQRPPRLPRPRPRPNYEPRP: -0.123; RRIRERPPRLPRPRPRPFNFPRP: -0.298.
Regarding RRIRYRPPRLPRPRPRPENQPRP, the “shrunken log2 fold change” value is -0.222.
RRIRERPPRLPRPRPRPMFEPRP: the “shrunken log2 fold change” value is 0.000206.
As for RRIRMRPPRLPRPRPRPRWTPRP, the “shrunken log2 fold change” value amounted to 0.548.
In the case of RRIRNRPPRLPRPRPRPGSLPRP, the “shrunken log2 fold change” value was -0.0901.
Next, RRIRCRPPRLPRPRPRPREWPRP: -0.0656.
